Laboratory results taken from patent US20040197338A1 (published 2004).

Target: T1, P^His (recombinant RSV A2 phosphoprotein (P) with a Histidine tag at its amino terminus, expressed from pETP … (respiratory syncytial virus, A2 strain, UniProt P03421 1-241))
T1 construct: also called P^His protein; recombinant P protein; not shown: N-terminal Histidine tag from vector pET16b
Experiment: not described at this place (legend of FIG. 10)

KLCGMLLITE [peptide N4.10]
binding result: binds
